According to US20250019453A1 (SYNTHEKINE, published 2025):

T1: mIL2Rb ECD antigen (murine, UniProt P16297 27-240)
T1 construct: The immunogen was the ECD fused to human IgG1 hinge and Fc; also called ECD of IL2Rb (mouse)
T1 sequence: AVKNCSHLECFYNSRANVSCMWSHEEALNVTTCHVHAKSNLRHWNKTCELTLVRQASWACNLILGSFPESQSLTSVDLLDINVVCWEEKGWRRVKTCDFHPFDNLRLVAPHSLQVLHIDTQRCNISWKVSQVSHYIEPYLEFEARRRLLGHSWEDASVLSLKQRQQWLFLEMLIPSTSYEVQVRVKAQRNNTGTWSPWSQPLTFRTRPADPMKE

T2: hIL2Rg ECD antigen (human, UniProt P31785 23-262)
T2 construct: The immunogen was the ECD fused to human IgG1 hinge and Fc; also called ECD of IL2Rg (human); human IL-2Rγ
T2 sequence: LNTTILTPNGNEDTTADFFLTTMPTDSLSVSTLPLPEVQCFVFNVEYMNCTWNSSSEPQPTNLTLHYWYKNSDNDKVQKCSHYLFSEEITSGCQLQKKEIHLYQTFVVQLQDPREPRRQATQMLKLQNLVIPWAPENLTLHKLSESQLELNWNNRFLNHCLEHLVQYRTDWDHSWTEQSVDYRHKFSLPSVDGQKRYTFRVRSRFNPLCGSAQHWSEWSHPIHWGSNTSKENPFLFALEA


What was measured:
mIL2Rb ECD antigen = molecular target: T1, mIL2Rb ECD antigen; assay: PE-ELISA of phage clones
hIL2Rg ECD antigen = molecular target: T2, hIL2Rg ECD antigen; assay: PE-ELISA of phage clones

| Binder | binding result (mIL2Rb ECD antigen) | binding result (hIL2Rg ECD antigen) |
| --- | --- | --- |
| DR1465 (VHH, As a his-tagged phage clone periplasmic extract) VHH: EVQLVESGGGLMQAGGALRLSCTASGPTFTSYTMGWFRQSPGKRREFVAVISKGGRTYYADSVKGRFTISRDNAKNTFYLQMSSLKPEDTAVYYCAGQRVGATSKYEYDYWGQGTQVTVSS | binds |  |
| DR1466 (VHH, As a his-tagged phage clone periplasmic extract) VHH: EVQLVESGGGLVRAGGSLRLSCAASGFTFSTDWMYWVRRAPGKGLEWVSLINTDGTSTSYTKSVKGRFTVSRDNAKNTLYLQMNSLKPEDTALYYCARGRTYWFYAMDYWGKGTQVTVSS | binds |  |
| DR1448 (VHH, As a his-tagged phage clone periplasmic extract) VHH: EVQLVESGGRLVQAGDSLRLSCVASGKSFSDYPLGWFRQAPGKAREYVAHISWSGKLTYYRSTVKGRFTISRDNAENKLYLQMNALKPEDTAVYYCAAMKLFNYGGRYCVLKPLTMYQQWSQGTQVTVSS | binds |  |
| DR1451 (VHH, As a his-tagged phage clone periplasmic extract) VHH: EVQLVESGGGLVQAGDSLRLSCAASERFSWGNYAMYWFRQAPGKEREFVAAIGRNSMATYYRDSAKGRFVISRDNAKNTLYLEMNALKPEDTARYYCAAKFMVADGWSRQYDYWGQGTLVTVSS | binds |  |
| hIL2Rg_VHH-1 (VHH, As a his-tagged phage clone periplasmic extract) VHH: QVQLQESGGGSVQAGGSLRLSCAASGFTFDDSDMGWYRQAPGNECDLVSTISSDGSTYYADSVKGRFTISQDNAKNTVYLQMDSVKPEDTAVYYCAADFMIAIQAPGAGCWGQGTQVTVSS |  | binds |
| hIL2Rg_VHH-7 (VHH, As a his-tagged phage clone periplasmic extract) VHH: QVQLQESGGGLVQPGGSLRLSCAASGFTFDDREMNWYRQAPGNECELVSTISSDGSTYYADSVKGRFTISQDNAKNTVYLQMDSVKPEDTAVYYCAADFMIAIQAPGAGCWGQGTQVTVSS |  | binds |
| DR1464 (VHH, As a his-tagged phage clone periplasmic extract) VHH: EVQLVESGGGLVQAGGSLRLSCAASGRTFSSYAMGWFRQAPGKEREFVTAISRSGGYTSYADSVKGRFTISRDNAKNTVYLQMNSLKPEDTAVYYCAKLIAPFYYGMDYWTKGTQVTVSS | binds |  |
| DR1458 (VHH, As a his-tagged phage clone periplasmic extract) VHH: EVQLVESGGGLVQAGGSLRLSCAASGRTLSTYAMGWFRQAPGKEREFVAAIRWASGRTYYGDSVKGRFTISRDSAKNTVYLQMNSLKPEDTAVYYCAARSRPYLNYGDFGYWGQGTQVTVSS | binds |  |
| DR857 (VHH, As a his-tagged phage clone periplasmic extract) VHH: QVQLQESGGGLVQPGGSLRLSCAASGFTFSLYDMSWVRQAPGKGLEWVSGINSGGYSTYYAASAKGRFTISRDNAKNTLYLQLSSVKTEDTAMYYCAQRGLTSPYVIPNIRLQGTQVTVSS | binds |  |
| DR1450 (VHH, As a his-tagged phage clone periplasmic extract) VHH: EVQLVESGGGLVQAGGSLRLSCVISGRSINYYRMGWFRQAPGNRRQFVAAIKWGGDGVYADSVKGRFTISRDNTKNTVYLQMDSLKPEDTGTYYCAKMPLSSWSRGGYLEVWGQGTLVTVSS | binds |  |
| DR1463 (VHH, As a his-tagged phage clone periplasmic extract) VHH: EVQLVESGGSVVQPGDSLRLACTASGRSFRSYAIGWFRQASGKERVFVAAISYDGRRTYYGRSLKDRFTISRDNAKNTVYLQMNSLKPEDTAVYYCATHRSGTMFARYGMDYWGKGTLVTVSS | binds |  |
| DR1472 (VHH, As a his-tagged phage clone periplasmic extract) VHH: EVQLVESGGGLVRAGDSLRLSCAVSGLASSSFFMTWFRQGQGKEREFVATISWTGRTSYYAASVKGRFTVSRDNAKNTVYLQMNSLNSEDTAVYFCAAYPRTLVRNREPIHWGQGTQVTVSS | binds |  |
| DR1467 (VHH, As a his-tagged phage clone periplasmic extract) VHH: EVQLVESGGGLVQAGDSLRLSCAASGRISNYAMGWFRQAPGKEREFVAVITRSGGSTYYADSVKGRFTISRDNGKNTIDLQMNRLKPEDTAVYYCAVRRSQKLVTFGAEYPWWGQGTLVTVSS | binds |  |
| DR1456 (VHH, As a his-tagged phage clone periplasmic extract) VHH: EVQLVESGGGLVQAGGSLRLSCAASGLTFRTYYMSWFRQAPGKEREFVGVISWIGSTTLYADSVKGRFSISRDNAKNTVYLQMNNLKPEDTAVYYCAANFLREGKREPRYWGQGTQVTVSS | binds |  |
| DR1459 (VHH, As a his-tagged phage clone periplasmic extract) VHH: EVQLVESGGGLVQAGGSLRLSCAASGRTISTYAMVWFRQASGKEREFVGVISRSGDRTYYADSVKGRFTISRDNLGNIVRLQLNSLKPEDTAVYYCARGGYTGIETITARGRGTLVTVSS | binds |  |
| DR1452 (VHH, As a his-tagged phage clone periplasmic extract) VHH: EVQLVESGGGLVQAGGALRLSCAASGRTFRRFMGWFRQAPGKEREFVAAINWPGGGTYYGDSVKGRFTISRDNAKNTVYLQMNSLKPEDTANYYCAATRKYNLYKFADWGQGTQVTVSS | binds |  |
| DR1454 (VHH, As a his-tagged phage clone periplasmic extract) VHH: EVQLVESGGGLVQAGGSLRLFCASSERTFGDYPIGWFRQAPGKEREFVASISWGGSRQYYTDSVKGRFTITRDNDKNTVYLQMNSLKPEDTAVYYCWVRVRLSNTALLQRYWGQGTLVTVSS | binds |  |
| DR1471 (VHH, As a his-tagged phage clone periplasmic extract) VHH: EVQLVESGGGLVQAGGSLRLSCVFSGRAPASYAMAWFRQAVGNEREFVAAINWSGRRTYYADSVKGRFTISKDNAQNTAYLQMTNLEPEDTATYYCNAYLSGTYYWGQGTQVTVSS | binds |  |
| DR1460 (VHH, As a his-tagged phage clone periplasmic extract) VHH: EVQLVESGGGLVQTGDSLRLSCAAPESIFNNNAVYWYRQFPGKEREYVGLITIGGRTGYADSVKGRFTISRDNANNVAFLQMDSLKPEDTAVYYCATGLKFGFNFYSKTAYDYWGQGTQVTVSS | binds |  |
| DR1462 (VHH, As a his-tagged phage clone periplasmic extract) VHH: EVQLVESGGGLVQAGGSLRLSCVSSGRTFGYVAMGWFRQAPGKEREFVASINWSGGSTAYADSVKGRFTISRDNAKNTVYLQMNSLKPEDTAVYYCAGSTRFYIATMEQGSYDYWGQGTQVTVSS | binds |  |
| hIL2Rg_VHH-23 (VHH, As a his-tagged phage clone periplasmic extract) VHH: QVQLQESGGGLVQPGGSLRLSCAASGFSFSSYPMTWARQAPGKGLEWVSTIASDGGSTAYAASVEGRFTISRDNAKSTLYLQLNSLKTEDTAMYYCTKGYGDGTPAPGQGTQVTVSS |  | binds |
| hIL2Rg_VHH-2 (VHH, As a his-tagged phage clone periplasmic extract) VHH: QVQLQESGGGSVPAGGSLKLSCAASGFSFSSYPMTWARQAPGKGLEWVSTIASDGGSTAYAASVEGRFTISRDNAKSTLYLQLNSLKTEDTAMYYCTKGYGDGTPAPGQGTQVTVSS |  | binds |
| DR1453 (VHH, As a his-tagged phage clone periplasmic extract) VHH: EVQLVESGGRLVQAGDSLRLSCVASGRIFNTYSMGWFRQVPGKERDFVAAIRWSGGTTYYTDSVKGRFTISRDNAKNTVYLQMNSLKPEDTAVYYCWVRVRLSNTALLQRYWGQGTLVTVSS | binds |  |
| DR1468 (VHH, As a his-tagged phage clone periplasmic extract) VHH: EVQLVESGGGLVQAGGSLRLSCTTSGRTGTHYAMGWFRQAPGKEREFVSLILWNGEFTTYKDSVKGRFTISREKGENTVYLQMNSLKPEDTAVYYCYLRVFARRYWGQGTQVTVSS | binds |  |
| DR1461 (VHH, As a his-tagged phage clone periplasmic extract) VHH: EVQLVESGGRLVQAGDSLRLSCVASGRIFNTYSMGWFRQVPGKERDFVAAIRWSGGTTYYTDSVKGRFTISRDNAKNTVYLQMKDLKPQDTAVYYCAAVPSGRSWYGRNRYWGQGTLVTVSS | binds |  |
| DR1455 (VHH, As a his-tagged phage clone periplasmic extract) VHH: EVQLVESGGGLVQTGGSLRLSCAASGRTFNSYAMGWFRQSPGKEREFVAVITWNSGRTYYADSVKGRFTISRDNAKNTVYLQMNSLKPEDTAVYYCNSAPWAHNREWGQGTLVTVSS | binds |  |
| DR1457 (VHH, As a his-tagged phage clone periplasmic extract) VHH: EVQLVESGGRLVQAGDSLRLSCVASGRIFNTYSMGWFRQVPGKERDFVAAIRWSGGTTYYTDSVKGRFTISRDNAKNTVYLQMNSLKPEDTAVYYCYLRVFARRYWGQGTQVTVSS | binds |  |
| DR1469 (VHH, As a his-tagged phage clone periplasmic extract) VHH: EVQLVESGGGLVQPGGSLRLSCEVSGFTFSNYWMYWIRQAPGKGLEWVSHINTNGGNTYYRHSVKGRFTISRDNAKNTLYLQMNGLKSEDTAVYYCAKANSDVGLGYYGMDYWGKGTQVTVSS | binds |  |
| DR1449 (VHH, As a his-tagged phage clone periplasmic extract) VHH: EVQLVESGGGLVQAGGSLRLSCAASGRSFSGYAIGWFRQAPGKEREFVAVVSWRGSSTYYADSVKGRFTISRDNAKGTVYLQMNSLKPEDTAAYYCAAVPSGRSWYGRNRYWGQGTQVTVSS | binds |  |
| DR1470 (VHH, As a his-tagged phage clone periplasmic extract) VHH: EVQLVESGGGSVQPGGSLRLSCAAPESIFNNNAVYWYRQFPGKEREYVGLITIGGRTGYADSVKGRFTISRDNANNVAFLQMDNLKPEDTAVYYCAARPGYWSSSYDYWGQGTQVTVSS | binds |  |
